Assay results published in patent US20190248882A1 (ALLERGAN, published 2019).

Biological target: T1, human ANG-2 (R&D Systems) (human, UniProt O15123 68-496, limits assumed, biotinylated in the Tie-2 competition ELISA (site not stated))
T1 construct: Protein bought from R&D Systems; It was unlabelled in the Octet assay and biotinylated in the ELISA; also called angiopoietin-2; ANGPT2
T1 sequence: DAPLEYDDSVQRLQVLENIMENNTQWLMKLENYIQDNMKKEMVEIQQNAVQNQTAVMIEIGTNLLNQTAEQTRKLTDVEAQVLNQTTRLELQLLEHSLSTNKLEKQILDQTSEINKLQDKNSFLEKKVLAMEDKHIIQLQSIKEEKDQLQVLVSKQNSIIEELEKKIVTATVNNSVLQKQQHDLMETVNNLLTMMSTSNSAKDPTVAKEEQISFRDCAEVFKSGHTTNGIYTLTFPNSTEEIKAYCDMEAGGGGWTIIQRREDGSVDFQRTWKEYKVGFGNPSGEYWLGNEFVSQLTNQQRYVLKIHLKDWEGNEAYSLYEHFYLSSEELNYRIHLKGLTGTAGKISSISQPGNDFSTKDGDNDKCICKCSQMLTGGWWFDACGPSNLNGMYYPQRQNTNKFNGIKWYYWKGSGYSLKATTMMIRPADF
Experiment: BLI (Octet QKe); HCAb captured on anti-hIgG Fc tips, ANG-2 at 20 to 500 nM in solution
Procedure: Affinity measurements were performed using a fortéBIO OCTET® QK^e system equipped with anti-hlgG Fc capture (AHC) biosensor tips and strepavidin-coated biosensors (fortéBIO, Menlo Park, Calif.). For AHC affinity measurement, purified anti-ANG-2 HCAb A33A8 was tested for its binding capacity with AHC sensor tips. Tips were loaded using 20 μg/ml anti-ANG-2 A33A8 HCAb. Loading proceeded for 300 sec resulting in capture levels of between 1.8 and 2 nm. ANG-2 (R & D systems) antigen was prepared for binding analysis by dilution to concentrations of 20 to 500 nM in 1×PBS. Association was initiated and monitored for 200 sec, after which tips were transferred to 1×PBS buffer without Factor protein (Gibco, PBS pH 7.2), in order to monitor dissociation. Anti-ANG-2 A33A8 HCAb binding activity was then monitored in real time using bio-layer interferometry analysis. Antigen binding affinities were calculated for the tested ANG-2 based on the measured association (“Kassoc”) and dissociation (“Kdissoc”) constants. Data were processed and analyzed using the OCTET® data analysis software 6.4 (fortéBIO) (FIG. 4).

B1: A33A8 human anti-ANG-2 HCAb (antibody, human IgG1, V domains shown)
VH: QVQLVESGGGLVQPGGSLRLSCAASGFTFSSYWMHWVRQAPGKGLVWVSRINSDGSSTSYADSVKGRFTISRDNAKNTLYLQMNSLRAEDTAVYYCAREGYSSGGQFDYWGQGTLVTVSS
notes: also called anti-ANG-2 HCAb A33A8; anti-ANG-2 A33A8 HCAb
- Kd: < 1 pM
